# According to PMC5856820, “HIV envelope V3 region mimic embodies key features of a broadly neutralizing antibody lineage epitope” (Nature Communications, 2018):
# B1: DH270.6 Y48LL: DH270.6 Fab with light-chain Y48 mutated to leucine, as in the UCA (antibody, V domains shown)
# VH: QVQLVQSGAQMKNPGASVKVSCAPSGYTFTDFYIHWLRQAPGQGLQWMGWMNPQTGRTNTARNFQGRVTMTRDTSIGTAYMELRSLTSDDTAIYYCTTGGWISLYYDSSYYPNFDHWGQGTLLTVSS
# VL: QSALTQPASVSGSPGQSITISCTGTKYDVGSHDLVSWYQQYPGKVPKLMIYEVNKRPSGVSNRFSGSKSGNTASLTISGLRAEDEADYYCCSFGGSATVVCGGGTKVTVL
# What was measured:
# [1] = target: DH270.6 Fab (human); assay: BLI
# [2] = target: DH270.6 Fab S103G (heavy chain) (human); assay: BLI
# [3] = target: DH270.6 Fab T98R (heavy chain) (human); assay: BLI
# [4] = target: DH270.6 Fab Y48L (light chain) (human); assay: BLI
# [5] = target: DH270.6 Fab (human); assay: BLI; Octet QKe; 0.2 mg/ml His-tagged Fab immobilised on an anti-Human Fab-CH1 biosensor; SOSIP.664 trimers at 0.1 to 0.6 μM; association and dissociation 5 min each; agitation 1000 rpm
# [6] = target: DH270.6 Fab (human); assay: as above; remark: listed apart in the source
# [7] = target: biotinylated Man9-V3 glycopeptide (HIV-1 (strain JRFL)); assay: BLI; BLItz instrument; 0.2 mg/ml biotinylated Man9-V3 immobilised on a streptavidin biosensor; DH270.6 Fab at 40, 15, 5, 1.5 and 0.25 μM; 22 °C; duplicate measurements; kd calculated as the product of ka and KD
# [8] = tested on: wild-type 92BR SOSIP.664; assay: Biolayer interferometry (Octet QKe), Fab binding to wild-type 92BR SOSIP.664 Env trimer; design: species or system HIV-1; details: for change in Env interaction/affinity of DH270.6 mutant relative to DH270.6: 92BR SOSIP.664 Env trimer; for change in Env interaction/affinity of DH270.6 mutant relative to DH270.6 / Kd: Table 2; for Kd: Fab 0.2 mg/ml immobilized on anti-Human Fab-CH1 biosensor, trimer 0.1 μM to 0.6 μM, association and dissociation 5 min each, 1000 rpm, duplicate measurements, error SEM, read-out: KD of Fab complexes with wild-type 92BR SOSIP.664
# Experimental: (§1) The SOSIP.664 constructs were cloned into the same pVRC-8400 vector described above for Fabs and any mutations were added by site-directed mutagenesis using manufacturer’s protocols (Stratagene). SOSIP.664 constructs were transfected along with a plasmid encoding the cellular protease furin at a 3:1 Env:furin ratio in 293F cells, adapted to grow in suspension from HEK293T cells (ATCC: CRL-3216). The expression construct of furin was kindly provided by Bing Chen (Boston Children’s Hospital, Boston, MA). The cells were allowed to express soluble SOSIP trimers for 5–7 days, and gp120 monomers were expressed for 5 days. Culture supernatants were collected and cells were removed by centrifugation at 3800 × g for 20 min, and filtered with a 0.2 µm pore size filter. Envs were purified by flowing the supernatant over a lectin (Galanthus nivalis) affinity chromatography column overnight at 4 °C. The lectin column was washed with 1× PBS, followed by a second wash with 1× PBS and 0.5 M NaCl and proteins were eluted with 1× PBS supplemented with 0.5 M methyl-α-D-mannopyranoside and 0.5 M NaCl. The eluate was concentrated and loaded onto a Superdex 200 10/300 GL column (GE Life Sciences) pre-equilibrated in a buffer of 2.5 mM Tris, pH 7.5, 350 mM NaCl and 0.02% sodium azide for BLI and in 10 mM Hepes, pH 8.0, 150 mM NaCl and 0.02% sodium azide for negative stain EM, to separate the trimer-size oligomers from aggregates and gp140 monomers and to separate gp120 monomers from aggregates.
# Kinetic measurements of Fab binding to the SOSIP.664 constructs were carried out using the Octet QK^e system (ForteBio); 0.2 mg/ml of each His-tagged Fab was immobilized onto a anti-Human Fab-CH1 biosensor until it reached saturation. The SOSIP.664 trimers were tested at concentrations of 0.1 μM to 0.6 μM. A reference sample of buffer alone was used to account for any signal drift that was observed during the experiment. Association and dissociation were each monitored for 5 min. All experiments were conducted in the Octet instrument with agitation at 1000 rpm.
# Analyses were performed using nonlinear regression curve fitting using the Graphpad Prism software, version 7.
# [9] = tested on: R327A mutant of 92BR SOSIP.664 Env; assay: Biolayer interferometry (Octet QKe), DH270.6 Fab binding to R327A mutant 92BR SOSIP.664 Env trimer; design: species or system HIV-1
# Experimental: as §1, with “The eluate was concentrated and loaded onto a Superdex 200 10/300 GL column (GE Life Sciences) pre-equilibrated in a buffer of 2.5 mM Tris, pH 7.5, 350 mM NaCl and 0.02% sodium azide for BLI and in 10 mM Hepes, pH 8.0, 150 mM NaCl and 0.02% sodium azide for negative stain EM, to separate the trimer-size oligomers from aggregates and gp140 monomers and to separate gp120 monomers from aggregates.” left out
# Kinetic measurements of Fab binding to the SOSIP.664 constructs were carried out using the Octet QK^e system (ForteBio); 0.2 mg/ml of each His-tagged Fab was immobilized onto a anti-Human Fab-CH1 biosensor until it reached saturation. […] Association and dissociation were each monitored for 5 min. […]
# [10] = tested on: 92BR SOSIP.664 trimer; assay: Negative stain EM of DH270.6 Fab-92BR SOSIP.664 complex; design: species or system HIV-1; details: negatively stained EM; 6 molar excess of Fab, 4 °C, 1.5 h
# Experimental: A 2.5 µl aliquot containing ∼0.01 mg/ml of the Fab-92BR SOSIP.664 complex was applied for 30 s onto a carbon-coated 400 Cu mesh grid that had been glow discharged at 5 mA for 2 min, followed by negative staining with 0.7% uranyl formate for 20 s. Samples were imaged using a FEI Tecnai T12 microscope operated at 120 kV and a magnification of ×52,000, yielding a pixel size of 2.13 Å at the specimen plane. Images were acquired with a Gatan 2 K CCD camera using a nominal defocus of 1500 nm at 10° tilt increments, up to 50°. The tilts provided additional particle orientations to improve the image reconstructions.
# Particles were picked semi-automatically using EMAN2 and put into a particle stack. Initial, reference-free, two-dimensional (2D) class averages were calculated, and particles corresponding to complexes (with three Fabs bound) were selected into a substack for determination of an initial model. The initial model was calculated in EMAN2 using threefold symmetry and EMAN2 was used for subsequent refinement using threefold symmetry. In total, 12,941 particles were included in the final reconstruction for the 3D average of 92BR SOSIP.664 trimer complex with DH270.6. The resolution of the final model was estimated using a Fourier Shell Correlation (FSC) cut-off of 0.5. […]
# [11] = tested on: HIV-1 (autologous and heterologous viruses); details: cited from earlier work
# From the text: A synthetic V3-loop glycopeptide (“Man9-V3”), described recently, presents the conformational epitopes needed for the binding of N332 glycan-dependent bnAbs[24], [25]. The peptide design derives from the JRFL mini-V3 gp120 outer domain, used previously for determining a crystal structure with the Fab of bnAb PGT128[9]. The synthetic V3 glycopeptide, which has Man9 glycans (Man9GlcNAc2) at N332 and N301[24] and a 14-residue tip deleted, was used to identify the V3-glycan bnAb DH270.6 (12.9% mutated nucleotides and 71% neutralization breadth[12]) by labeling the B-cell receptor (BCR) on cells fr ... || We describe here a high-resolution crystal structure of “Man9-V3” bound with the single chain variable fragment (scFv) of the N332-glycan dependent bnAb, DH270.6. We have also determined a structure of the Fab of a clonally related member of this lineage, DH270.3 (11.8% mutated nucleotides and 42% neutralization breadth), in complex with a synthetic Man9 glycan. These clonally related antibodies have similar numbers of mutation, but their neutralization breadth and potency differ substantially. Through structural analysis of these two related antibodies, we can account for differences in b ... || Somatic hypermutation is biased by the preference of the activation-induced cytidine deaminase (AID) for certain microsequence motifs (“hot spots”)[28], [29]. […]
molecule,measurement,setting,value
"92BR SOSIP.664 Env trimer, R327A mutant (complex)",Kd,[1],7.64 nM
"92BR SOSIP.664 Env trimer, wild type (complex)",Kd,[2],19 nM
same,Kd,[3],46 nM
same,Kd,[4],44 nM
same,Kd,[5],11 nM
same,Kd,[6],2.76 nM
DH270.6 Fab,Kd,[7],7000 nM
DH270.6 S103GH: DH270.6 Fab with heavy-chain S103G mutation,change in Env interaction/affinity of DH270.6 mutant relative to DH270.6,[8]; Fig. 4b,weakens the Env interaction twofold
same,Kd,[8],19 ± 1 nM
DH270.6 T98RH: DH270.6 Fab with heavy-chain T98 reverted to Arg,binding with 92BR SOSIP.664 Env trimer,"[8]; reversion mutant of DH270.6, Fig. 4b",only negligible residual binding
DH270.6: V3-glycan broadly neutralizing antibody of DH270 lineage from HIV-1 infected donor CH848,Kd,[8],11 ± 1 nM
same,affinity of Env R327A mutant for DH270.6 relative to wild-type,"[9]; Fig. 4a, compared with wild-type counterpart",only a slightly lower affinity
same,Kd,"[9]; read-out: KD, R327A mutant 92BR SOSIP.664 Env tested with DH270.6 Fab, Fig. 4a legend, Fab immobilized on anti-Human Fab-CH1 biosensor, trimer 0.1 μM to 0.6 μM",7.64 nM
same,DH270.6 Fabs bound per trimer,[10],three
same,neutralization breadth,[11],71%
B1,change in Env interaction/affinity of DH270.6 mutant relative to DH270.6,[8]; Fig. 4b,fourfold lower affinity
same,Kd,[8],44 ± 2 nM
